# Measured values: paper PMC3794980
# Tests used:
# Assay in all cases: radioligand binding
# [1] = target: HLA-DR DRB1*0101 (human (endogenous in EBV transformed cell lines))
# [2] = target: HLA-DR DRB1*0802 (human (endogenous in EBV transformed cell lines))
# [3] = target: HLA-DR DRB4*0101 (human (endogenous in EBV transformed cell lines))
# [4] = target: HLA-DR DRB1*0301 (human (endogenous in EBV transformed cell lines))
# [5] = target: HLA-DR DRB3*0101 (human (endogenous in EBV transformed cell lines))
# [6] = target: HLA-DR DRB5*0101 (human (endogenous in EBV transformed cell lines))
# [7] = target: HLA-DR DRB1*1501 (human (endogenous in EBV transformed cell lines))
# [8] = target: HLA-DR DRB1*0701 (human (endogenous in EBV transformed cell lines))
# [9] = target: HLA-DR DRB1*0405 (human (endogenous in EBV transformed cell lines))
# [10] = target: HLA-DR DRB1*1101 (human (endogenous in EBV transformed cell lines))
# [11] = target: HLA-DR DRB1*0901 (human (endogenous in EBV transformed cell lines))
# [12] = target: HLA-DR DRB1*1302 (human (endogenous in EBV transformed cell lines))
# [13] = target: HLA-DR DRB1*0401 (human (endogenous in EBV transformed cell lines))
substance,measurement,setting,value
DENV3 Envelope 171-185 (peptide),IC50,[1],62.6 nM
same,IC50,[2],91.2 nM
same,IC50,[3],787 nM
DENV3 NS5 268-284 (peptide),IC50,[3],869 nM
DENV3 NS1 305-319 (peptide),IC50,[4],841 nM
DENV3 NS1 193-207 (peptide),IC50,[5],24.3 nM
same,IC50,[3],180 nM
DENV3 NS5 447-463 (peptide),IC50,[6],25 nM
DENV3 Envelope 281-295 (peptide),IC50,[4],16.7 nM
same,IC50,[7],652 nM
same,IC50,[5],31.1 nM
DENV3 Envelope 236-250 (peptide),IC50,[1],340 nM
same,IC50,[8],560 nM
same,IC50,[2],419 nM
same,IC50,[6],29.6 nM
DENV3 NS5 39-55 (peptide),IC50,[5],749 nM
same,IC50,[3],563 nM
DENV3 NS3 313-327 (peptide),IC50,[2],39.7 nM
DENV3 NS1 293-307 (peptide),IC50,[8],83.2 nM
same,IC50,[3],793 nM
DENV3 NS3 101-115 (peptide),IC50,[1],201 nM
same,IC50,[9],725 nM
same,IC50,[7],447 nM
DENV3 NS3 345-359 (peptide),IC50,[5],31.8 nM
DENV3 NS5 588-604 (peptide),IC50,[10],124 nM
DENV3 NS5 511-527 (peptide),IC50,[3],56.7 nM
same,IC50,[6],611 nM
DENV3 Envelope 396-410 (peptide),IC50,[1],4.89 nM
same,IC50,[4],424 nM
same,IC50,[8],296 nM
same,IC50,[2],106 nM
same,IC50,[11],39.9 nM
same,IC50,[10],38.9 nM
same,IC50,[7],258 nM
same,IC50,[5],424 nM
same,IC50,[6],26.8 nM
DENV3 NS5 576-592 (peptide),IC50,[12],297 nM
same,IC50,[3],108 nM
DENV3 NS1 173-187 (peptide),IC50,[1],25.9 nM
same,IC50,[4],787 nM
same,IC50,[13],502 nM
same,IC50,[11],608 nM
same,IC50,[10],651 nM
same,IC50,[5],57.5 nM
same,IC50,[6],753 nM
DENV3 NS1 241-255 (peptide),IC50,[1],50.7 nM
DENV3 NS5 489-505 (peptide),IC50,[1],231 nM
same,IC50,[4],118 nM
same,IC50,[9],236 nM
same,IC50,[5],387 nM
same,IC50,[6],936 nM
DENV3 NS5 336-352 (peptide),IC50,[3],747 nM
DENV3 NS3 393-407 (peptide),IC50,[8],456 nM
DENV3 NS3 417-431 (peptide),IC50,[5],632 nM
DENV3 NS1 69-83 (peptide),IC50,[5],50.2 nM
DENV3 NS1 233-247 (peptide),IC50,[4],72.6 nM
same,IC50,[13],87 nM
same,IC50,[5],159 nM
DENV3 NS3 105-119 (peptide),IC50,[1],49 nM
same,IC50,[2],175 nM
same,IC50,[11],407 nM
same,IC50,[3],843 nM
same,IC50,[6],177 nM
DENV3 NS5 495-511 (peptide),IC50,[13],14.9 nM
same,IC50,[8],190 nM
same,IC50,[11],448 nM
same,IC50,[6],723 nM
DENV3 NS3 61-75 (peptide),IC50,[12],84.5 nM
same,IC50,[6],143 nM
DENV3 NS5 330-346 (peptide),IC50,[2],4.01 nM
DENV3 NS5 523-539 (peptide),IC50,[1],733 nM
same,IC50,[4],9.29 nM
same,IC50,[13],7.25 nM
same,IC50,[10],170 nM
same,IC50,[5],44.8 nM
same,IC50,[3],445 nM
DENV3 NS3 57-71 (peptide),IC50,[1],882 nM
same,IC50,[7],196 nM
DENV3 NS5 290-306 (peptide),IC50,[1],299 nM
DENV3 NS3 357-371 (peptide),IC50,[1],15.9 nM
same,IC50,[4],436 nM
same,IC50,[8],29.5 nM
same,IC50,[11],100 nM
same,IC50,[7],15.7 nM
same,IC50,[5],711 nM
same,IC50,[3],759 nM
same,IC50,[6],273 nM
DENV3 NS1 93-107 (peptide),IC50,[8],483 nM
DENV3 NS3 121-135 (peptide),IC50,[4],8.64 nM
DENV3 NS1 313-327 (peptide),IC50,[3],503 nM
DENV3 Envelope 301-315 (peptide),IC50,[13],26.6 nM
same,IC50,[2],58.9 nM
DENV3 NS5 45-61 (peptide),IC50,[8],453 nM
same,IC50,[10],82.5 nM
same,IC50,[3],8.53 nM
same,IC50,[6],449 nM
DENV3 NS5 670-686 (peptide),IC50,[3],971 nM
same,IC50,[6],478 nM
DENV3 NS3 53-67 (peptide),IC50,[6],329 nM
DENV3 NS3 413-427 (peptide),IC50,[4],261 nM
same,IC50,[5],96.1 nM
DENV3 Envelope 261-275 (peptide),IC50,[8],82.1 nM
DENV3 Envelope 121-135 (peptide),IC50,[7],404 nM
DENV3 NS3 389-403 (peptide),IC50,[10],676 nM
DENV3 NS5 165-181 (peptide),IC50,[6],19.9 nM
DENV3 Envelope 51-65 (peptide),IC50,[1],80.6 nM
same,IC50,[2],130 nM
same,IC50,[10],40.4 nM
same,IC50,[7],982 nM
same,IC50,[3],154 nM
DENV3 NS3 209-223 (peptide),IC50,[3],5.06 nM
